{
  "source": "patent US8691225B2",
  "about": "“Antibodies against the ectodomain of ErbB3 and uses thereof” (Merrimack Pharmaceuticals, Inc., priority 2007, dated 2014)",
  "molecules": {"B1": {"name": "Ab #6: human anti-ErbB3 antibody from Fab-phage library, CDRs SEQ ID NOs:7-12; used as IgG1 and IgG2 isotypes; in phase I trials as MM-121 (antibody, V domains shown)", "VH": "EVQLLESGGGLVQPGGSLRLSCAASGFTFSHYVMAWVRQAPGKGLEWVSSISSSGGWTLYADSVKGRFTISRDNSKNTLYLQMNSLRAEDTAVYYCTRGLKMATIFDYWGQGTLVTVSS", "VL": "QSALTQPASVSGSPGQSITISCTGTSSDVGSYNVVSWYQQHPGKAPKLIIYEVSQRPSGVSNRFSGSKSGNTASLTISGLQTEDEADYYCCSYAGSSIFVIFGGGTKVTVL"}},
  "key": {"[1]": {"biological_target": "ErbB3 (Homo sapiens, UniProt P21860)", "assay": "Surface Plasmon Resonance Assay", "assay_type": "binding"}, "[2]": {"biological_target": "T1, ErbB3 in MALME-3M cells (Homo sapiens, UniProt P21860)", "T1 construct": "ErbB3 expressed on MALME-3M melanoma cells; host or cells: MALME-3M melanoma cells", "assay": "total ErbB3 levels in MALME-3M cells in vitro by ELISA", "assay_type": "cell-based", "conditions": "24 hours", "protocol": "MALME-3M cells are seeded in 96 well tissue culture plates and grown in RPMI-1640 media supplemented with antibiotics, 2 mM L-glutamine and 10% fetal bovine serum (FBS) for 24 hours at 37° C. and 5% carbon dioxide. Media are then switched to the same medium without FBS and with and without the antibody at concentrations of 1 uM, 250 nM, 63 nM, 16 nM, 4.0 nM, 1.0 nM, 240 pM, 61 pM and 15 pM. Medium containing no FBS or antibody is used as control. Cells are grown for 24 hours at 37° C. and 5% carbon dioxide, washed with cold PBS, then harvested with mammalian protein extract (MPER) lysis buffer (Pierce, 78505) to which 150 mM NaCl, 5 mM sodium pyrophosphate, 10 uM bpV (phen), 50 uM phenylarsine, 1 mM sodium orthovanadate, and protease inhibitor cocktail (Sigma, P2714) is added. Cell lysates are diluted two-fold with 4% bovine serum albumin in PBST (0.1% tween-20), then analyzed by ELISA with mouse anti-human ErbB3 capture antibody and biotinylated mouse anti-human ErbB3 secondary detection antibody. Signal is generated with streptavidin conjugated to horseradish-peroxidase reacted with SUPERSIGNAL ELISA Pico chemiluminescent substrate (Pierce, 37070). ELISAs are quantitated using a luminometer."}, "[3]": {"biological_target": "T2, ErbB3 receptors on MALME-3M cells (Homo sapiens, UniProt P21860)", "T2 construct": "ErbB3 expressed on MALME-3M melanoma cells; host or cells: MALME-3M melanoma cells", "assay": "downregulation of ErbB3 receptors on MALME-3M cells by FACS", "assay_type": "cell-based", "conditions": "100 nM", "protocol": "MALME-3M cells are trypsinized from a 15 cm dish and washed once with RPMI+10% FBS. Cell pellets are resuspended at a density of 1×10^6 cells per ml. Two aliquots of 2×10^5 cells are added to separate wells in a 12-well tissue culture plate and each resuspended in a final volume of 800 ul RPMI+10% FBS.\nCells are washed twice with 1 ml BD stain buffer and incubated with 100 ul of a 1:500 dilution of Alexa 647-labeled goat anti-human Alexa 647 for 45 minutes on ice. Cells are then washed and resuspended in 300 ul BD stain buffer+0.5 ug/ml propidium iodide. Analysis of 10,000 cells is done in a FACSCALIBUR flow cytometer using the FL4 channel."}, "[4]": {"biological_target": "T3, ErbB3 in MALME-3M xenografts (Homo sapiens, UniProt P21860)", "T3 construct": "ErbB3 expressed on MALME-3M melanoma cells; host or cells: MALME-3M melanoma cells", "assay": "total ErbB3 in MALME-3M xenografts in vivo", "set-up": "species or system mouse", "conditions": "MALME-3M xenograft, 24 hours post-injection, IgG1 or IgG2 isotype", "protocol": "T-cell deficient nu/nu mice (3-4 week old female mice originated at NIH; outbred; albino background) were purchased from Charles River Labs (Wilmington, Mass.). MALME-3M cells for implantation were grown in culture (RPMI media, 10% FBS, L-glutamine and antibiotics, 37° C., 5% CO2) to about 80% confluency before harvesting. Cells were kept on ice until implantation.\nThe tumors were measured (length by width) by digital caliper and the mice were pretreated with murine IgG2a (Sigma, M7769—5 mg) by intravenous injection to block in vivo depletion of tested antibodies by murine Fc receptors.\nFinal tumor measurements (L×W) were taken, the mice were euthanized by CO2 asphyxiation and tumors were excised, snap frozen in liquid nitrogen, and were stored at −80° C. (for biochemical analysis). Final tumor measurements were analyzed and graphed by tumor area and tumor volume as described, for example, in Burtrum et al., (2003) Cancer Res., 63:8912-8921. The data was also analyzed by “normalized” and “non-normalized” means for both tumor volume and tumor area. For the “normalization” of the data, at each time point of measurement, each tumor in each group was divided by the initial tumor size determined by caliper measurement."}, "[5]": {"tested_on": "ErbB3 phosphorylation in ovarian AdrR cells", "assay": "BTC or HRG induced ErbB3 phosphorylation in AdrR cells in vitro", "assay_type": "cell-based, human", "protocol": "Following pre incubation, the media are removed and the cells are stimulated for 5 minutes at 37° C., 5% CO2 with 50 nM BTC or 333 nM TGF-α. HRG controls (5 minutes, 5 nM), 10% serum and 0% serum controls are also used. Cells are washed with 1× cold PBS and lysed in 30 μl cold lysis buffer (M-PER buffer (Pierce) plus sodium vanadate (NaVO4, Sigma), 2-glycerophosphate, phenylarsine oxide, BpV and protease inhibitors) by incubating on ice for 30 minutes. Lysates are stored overnight at −80° C."}, "[6]": {"tested_on": "Colo357 (pancreatic) xenograft", "assay": "xenograft tumor growth in nude mice", "assay_type": "in vivo, mouse"}, "[7]": {"biological_target": "T4, epiregulin binding to AdrR cells (Homo sapiens, UniProt P21860)", "T4 construct": "host or cells: AdrR (NCI/AdrR) ovarian cancer cells", "assay": "biotinylated epiregulin binding to AdrR cells by FACS", "assay_type": "cell-based", "conditions": "12.5 μM antibodies, 1 μM Epi", "description": "After 30 minutes, 50 μl of 2 μM biotinylated Epi is added to the cells and incubated for another 30 minutes on ice. This yields a final concentration of 12.5 μM antibodies and 1 μM Epi. Cells are then washed twice with 500 μl BD stain buffer and incubated with 100 μl of a 1:200 dilution of streptavidin-PE (PE=phycoerythrin, a fluorescent protein) (Invitrogen) in BD stain buffer for 45 minutes. Finally, cells are washed twice, resuspended in 300 μl of BD stain buffer and analyzed in a FACSCALIBUR flow cytometer. As a positive control, 1×10^5 AdrR cells are incubated with 1 μM Epi for 30 minutes on ice, washed twice and incubated with a 1:200 dilution of streptavidin-PE for 45 minutes. To assess background staining from the streptavidin-PE conjugate, cells are incubated with 100 μl of a 1:200 dilution of streptavidin-PE only for 45 minutes."}, "[8]": {"tested_on": "three different xenografts", "assay": "VEGF secretion in xenografts in vivo", "from_the_text": "Inhibition of VEGF correlates with inhibition of ErbB3 phosphorylation (FIG. 24C). […] Inhibition of VEGF secretion is also known in the art to correlate with inhibition of tumor induced angiogenesis, a facilitator of tumor growth."}, "[9]": {"tested_on": "ACHN (a renal tumor cell line) xenograft tumors", "assay": "ACHN xenograft combination therapy", "assay_type": "in vivo, mouse", "conditions": "Ab #6 300 μg IP every three days; erlotinib 25 mg/kg orally once daily", "protocol": "In a first experiment, mice bearing ACHN (a renal tumor cell line) xenograft tumors are prepared by establishing tumors subcutaneously in the flanks of nude mice (Charles River Laboratories)."}, "[10]": {"tested_on": "DU145 (a prostate tumor cell line) xenograft tumors", "assay": "DU145 xenograft combination therapy", "assay_type": "in vivo, mouse", "conditions": "Ab #6 300 μg IP every three days; taxol 20 mg/kg IP once per week", "protocol": "In a second experiment, mice bearing DU145 (a prostate tumor cell line) xenograft tumors are prepared by establishing tumors subcutaneously in the flanks of nude mice (Charles River Laboratories). […] Again, tumor size is measured twice a week and measurements are used to calculate tumor volume."}},
  "data": [
    {"molecule": "B1", "values": [
      {"measurement": "competition with HRG for binding to ErbB3", "setting": "[1]", "value": "competes with HRG for binding to ErbB3"},
      {"measurement": "decrease of total ErbB3 levels", "setting": "[2]", "value": "about 46.9%"},
      {"measurement": "downregulation of ErbB3 on MALME-3M cells", "setting": "[3]; IgG1 isotype", "value": "about 62%"},
      {"measurement": "downregulation of ErbB3 on MALME-3M cells", "setting": "[3]; IgG2 isotype", "value": "about 66%"},
      {"measurement": "downregulation of total ErbB3 in xenograft tumors", "setting": "[4]", "value": "significant downregulation of total ErbB3"},
      {"measurement": "inhibition of betacellulin-mediated phosphorylation of ErbB3", "setting": "[5]; BTC stimulation", "value": "significantly inhibited"},
      {"measurement": "inhibition of heregulin-mediated phosphorylation of ErbB3", "setting": "[5]; HRG stimulation", "value": "significantly inhibited"},
      {"measurement": "inhibition of tumor growth", "setting": "[6]; 300 ug every three days (Q3d), p<0.05", "value": "significant inhibition of tumor growth"},
      {"measurement": "inhibition of tumor growth", "setting": "[6]; 600 ug Q3d versus 300 ug", "value": "further elevated"},
      {"measurement": "inhibition of tumor growth", "setting": "[6]; 1500 ug Q3d versus 600 ug", "value": "did not result in increased efficacy"},
      {"measurement": "inhibition of epiregulin binding to AdrR cells", "setting": "[7]", "value": "inhibited"},
      {"measurement": "inhibition of VEGF secretion in vivo", "setting": "[8]", "value": "inhibiting VEGF secretion in three different xenografts, the highest being in COLO-357 xenograft"},
      {"measurement": "inhibition of tumor growth (tumor volume)", "setting": "[9]", "value": "inhibit tumor growth"},
      {"measurement": "inhibition of tumor growth (tumor volume)", "setting": "[10]", "value": "inhibited tumor growth"}
    ]}
  ]
}
